Laboratory results as given in patent publication US8703698B2, “Compositions and methods for treating atherosclerosis” (The University of Chicago, priority 2003, dated 2014).

What was measured:
J774 macrophages = test: Cholesterol efflux from cholesterol-laden J774 macrophages to apolipoprotein liposomes with 8-bromo-cAMP or methyl-β-cyclodextrin; type: cell-based, mouse
Source text: The export process of cholesterol is coupled to the ATP binding cassette transporter (ABCA1) pathway. Lipid efflux to apolipoproteins has been shown previously to be stimulated by treatment of murine macrophages with cAMP analogues (Lin et al. 2002 Biochem Biophys Res. Commun. 290:663-669; Oram et al. 2000 J. Biol. Chem. 275:34508-34511). Also, the expression of ABCA1 is induced by cAMP treatment (Lin et al. 2002 Biochem Biophys Res. Commun. 290:663-669; Oram et al. 2000 J. Biol. Chem. 275:34508-34511). The inventors herein examined the effect of 8-bromo-cAMP (0.3 mM) on cholesterol efflux by liposomes containing various apolipoproteins when incubated with cholesterol-laden J774 macrophages. Such cells were pre-labeled with [^3H]-cholesterol in the presence of Sandoz 58-035, an ACAT inhibitor, to ensure that all of the radiolabeled cholesterol released from the cells was derived from the un-esterified cholesterol pool, and the cells were treated for 12 hours with 8-bromo-cAMP. This was followed by incubation with various acceptors. The fractional release of cellular labeled cholesterol was determined as a function of time.
To investigate whether an apolipoprotein free cholesterol acceptor such as cyclodextrin has the ability to catalyze the removal of cholesterol from macrophages, cholesterol-loaded and labeled J774 cells were incubated with liposomes and methyl-β-cyclodextrin (0.1 mM) (CD).
To examine whether cholesterol export from J774 cells to medium containing liposomes containing 2 μM murine apoA-1, SAA1.1 or SAA2.1 is a cAMP-dependent process, the radio-labeled cholesterol-laden cells were incubated overnight with 8-Br-cAMP (0.3 mM), prior to the addition of liposomes containing 2 μM murine apoA-1, SAA1.1 or SAA2.1 to the culture medium. Cholesterol efflux to the medium was then determined at the indicated time points as described above. Efflux of radioactive label to the medium was calculated as a percentage of total counts in each well.

[1] = target: T1, acyl CoA:cholesterol acyl transferase (Mus musculus, UniProt Q61263); test: ACAT activity in macrophage post-nuclear homogenates; type: biochemical, murine; settings: macrophage post-nuclear homogenates as enzyme source
T1 construct: host or cells: J774 mouse macrophages, cholesterol-loaded
T1 sequence (Q61263 1-540): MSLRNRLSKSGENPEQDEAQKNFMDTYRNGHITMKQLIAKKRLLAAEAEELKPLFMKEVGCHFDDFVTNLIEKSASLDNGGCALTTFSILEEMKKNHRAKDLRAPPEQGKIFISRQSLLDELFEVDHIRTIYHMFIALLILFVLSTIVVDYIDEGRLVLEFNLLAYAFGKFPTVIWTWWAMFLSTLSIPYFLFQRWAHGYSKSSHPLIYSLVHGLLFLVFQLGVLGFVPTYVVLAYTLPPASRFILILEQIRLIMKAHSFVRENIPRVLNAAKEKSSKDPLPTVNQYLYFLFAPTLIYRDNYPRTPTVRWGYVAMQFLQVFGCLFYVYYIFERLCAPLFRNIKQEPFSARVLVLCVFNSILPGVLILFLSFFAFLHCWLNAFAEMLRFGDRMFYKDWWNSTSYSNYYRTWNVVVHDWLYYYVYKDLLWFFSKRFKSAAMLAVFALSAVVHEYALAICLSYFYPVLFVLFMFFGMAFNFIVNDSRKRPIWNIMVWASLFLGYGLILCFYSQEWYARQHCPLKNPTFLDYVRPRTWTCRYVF
Source text: The in vitro effects of acute phase-HDL (AP-HDL;HDL-SAA) on acyl CoA:cholesterol acyl transferase and cholesterol ester hydrolase activities and on cellular cholesterol export were studied by the inventors using purified enzymes, cell homogenates, and whole cells. […] In contrast, murine SAA1.1 and apoA-1 had no effect. […] Using macrophages preloaded with radio-labeled cholesterol and injected intravenously into either inflamed or un-inflamed mice, it was shown that the inflamed mice, which have high SAA2.1 levels, effluxed cholesterol more rapidly and to a greater extent (6-fold greater) than their un-inflamed counterparts.

[2] = target: T1, acyl CoA:cholesterol acyl transferase; settings: intact murine macrophages and post-nuclear homogenates; Ely et al. 2001; cited from earlier work
[3] = test system: hepatic, macrophage, and pancreatic cholesterol esterase; settings: Lindhorst 1997; Ely 2001; Tam 2002; cited from earlier work

B1: GFFSFVHEAFQGAGDMWRAYTDMKEANWKNSDKYFHARGNYDAAQRGPGGVWAAEKISD GREAFQEFFGRGHEDTIADQEANRHGRSGKDPNYYRPPGLPDKY (protein, listed as Mus musculis)
chain: GFFSFVHEAFQGAGDMWRAYTDMKEANWKNSDKYFHARGNYDAAQRGPGGVWAAEKISDGREAFQEFFGRGHEDTIADQEANRHGRSGKDPNYYRPPGLPDKY
notes: full length murine serum amyloid A isoform 2.1 purified from acute phase plasma
increase in the initial rate of cholesterol efflux to liposomes after cAMP pre-treatment versus untreated cells (J774 macrophages; 8-bromo-cAMP 0.3 mM, 12 hours, Sandoz 58-035 present): 62.1% | further increase in cholesterol efflux by cAMP pre-treatment (J774 macrophages; cells exposed to liposomes and CD): 45.5% | increase in the initial rate of cholesterol efflux with CD treatment (J774 macrophages; methyl-β-cyclodextrin 0.1 mM plus liposomes): 4 fold | acyl CoA:cholesterol acyl transferase activity [1]: inhibit acyl CoA:cholesterol acyl transferase activity in a dose-dependent manner | macrophage ACAT activity [2]: inhibit macrophage acyl CoA:cholesterol acyl transferase (ACAT) activity | cholesterol esterase activities in vitro [3]: stimulate hepatic, macrophage, and pancreatic cholesterol esterase activities in vitro
